Biological target: Aquifex aeolicus TsaD2B^mut2 tetramer (Aquifex aeolicus | Thermotoga maritima, UniProt O66986 1-335)
Experiment: ITC

Chain of Aquifex aeolicus TsaD2B^mut2 tetramer (O66986 whole entry, chain 1 of 2): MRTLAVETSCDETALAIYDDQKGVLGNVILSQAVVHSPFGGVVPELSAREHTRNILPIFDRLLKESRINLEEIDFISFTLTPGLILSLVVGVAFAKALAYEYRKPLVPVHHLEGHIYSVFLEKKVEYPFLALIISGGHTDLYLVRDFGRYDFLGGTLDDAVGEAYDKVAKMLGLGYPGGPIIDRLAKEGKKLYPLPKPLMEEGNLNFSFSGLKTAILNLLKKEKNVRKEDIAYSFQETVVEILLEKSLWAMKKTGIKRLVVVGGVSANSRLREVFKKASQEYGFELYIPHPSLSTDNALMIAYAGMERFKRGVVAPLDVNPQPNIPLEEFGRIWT
Chain of Aquifex aeolicus TsaD2B^mut2 tetramer (chain, as listed by the source, chain 2 of 2): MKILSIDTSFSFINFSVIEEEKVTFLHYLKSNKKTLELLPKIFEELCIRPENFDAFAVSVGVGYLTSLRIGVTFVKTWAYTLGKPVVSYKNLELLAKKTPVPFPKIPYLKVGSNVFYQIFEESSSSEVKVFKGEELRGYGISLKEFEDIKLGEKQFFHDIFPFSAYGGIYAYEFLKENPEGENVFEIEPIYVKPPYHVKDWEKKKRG

Kd: 2.87 µM
B1: Aquifex aeolicus TsaE (enzyme)
chain: MELLKEVILESEEDTYKLAEEIAQLLKGSEVICLRGTLGAGKTTFVKALAKALKVKNPSAVRSPTFTLVNEYETDKGKLIHIDLYRVPDFDYSEFIGEGILAVEWEERDKPCDIILEIEILDENKRKVRIYRK
modifications: T. maritima TsaB C-tail WEKKKRG (200-206) grafted after residue 200 of A. aeolicus TsaB (new positions 201-207); C-terminal 6His tag on TsaB omitted; TsaD carries a bound divalent metal (Fe2+ or Zn2+); Cys10 of TsaD seen oxidised (CSO) in the crystal; ITC with TsaE done with AMPPNP/Mg2+

Reference: publication PMC11648230 (2024)
